B1: Azoarcus group I ribozyme (parent)
chain: GUGCCUUGCGCCGGGAAACCACGCAAGGGAUGGUGUCAAAUUCGGCGAAACCUAAGCGCCCGCCCGGGCGUAUGGCAACGCCGAGCCAAGCUUCGGCGCCUGCGCCGAUGAAGGUGUAGAGACUAGACGGCACCCACCUAAGGCAAACGCUAUGGUGAAGGCAUAGUCCAGGGAGUGGCGAAAGUCACACAAACCGG

In this data set the parent is B1. Kind of data set: reverse-splicing fitness (ratio to wild type); higher = more active; in vitro selection; Mg2+ level not given. The gist of the method:
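An in vitro group I ribozyme library with randomized positions was T7-transcribed and gel-purified. In triplicate, 10 pmol RNA in EPPS pH 7.5 was reacted with 50 pmoles of a 30-nt RNA substrate for 1 h at 37 °C across several added MgCl2 levels (1–48 mM), then stopped with EDTA. Products were reverse transcribed from a substrate-complementary primer, PCR-amplified and sequenced (HiSeq 4000). Fitness is a variant's read proportion after selection over that before, normalised to wild type.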
Take C82U A120U A145G C150U C169U U176C: the reverse-splicing fitness was 0.00389. Regarding C82U A120U A145G C150U C169U U176A, the reverse-splicing fitness was 0.00396. For the variant C82U A120U A145G C150U C169U U176G, the reverse-splicing fitness turned out to be 0.00198. On to C82U A120U A145C C150U C169U, for which the reverse-splicing fitness was found to be 0.00331. Under C82U A120U A145C C150U C169A stands 0.00167. Take C82U A120U A145C C150U C169G: the reverse-splicing fitness was determined as 0.00257. Regarding C82U A145C C150G C169A U176A, the reverse-splicing fitness turned out to be 0.00717.

In the case of C82U A145C C150G C169A U176C, the reverse-splicing fitness came to 0.00546.

With C82U A145C C150G C169A U176G, the reverse-splicing fitness was 0.0049. On to C82U A120U A145G C150A C169U U176G, for which the reverse-splicing fitness was 0.00199. On to C82U A120U A145G C150A C169U U176C, for which the reverse-splicing fitness amounted to 0.00329.

In the case of C82U A120U A145G C150A C169U U176A, the reverse-splicing fitness stood at 0.0038. Under C82U A120U C150A C169G U176C stands 0.00268. With C82U A120U C150A C169G U176G, the reverse-splicing fitness was determined as 0.00171. As for C82U A120U C150A C169G U176A, the reverse-splicing fitness turned out to be 0.00443. As to C82U A145C C150U C169A, the reverse-splicing fitness stood at 0.00695. Turning to C82U A145C C150U C169G, the reverse-splicing fitness is 0.00634.

For C82U A145C C150U C169U, the reverse-splicing fitness was determined as 0.00874. Take C82U A120U A145C C169G: the reverse-splicing fitness was 0.00426. On to C82U A120U A145C C169U, for which the reverse-splicing fitness worked out at 0.00535. As for C82U A120U A145C C169A, the reverse-splicing fitness is 0.00174. On to C82U A145G C150A C169A, for which the reverse-splicing fitness amounted to 0.0109. For C82U A120U A145U C169U U176A, the reverse-splicing fitness came out at 0.00227. In the case of C82U A120U A145U C169U U176C, the reverse-splicing fitness was found to be 0.00358. Consider C82U A120U A145U C169U U176G, for which the reverse-splicing fitness turned out to be 0.00161.

On to C82U A120U A145U C150U C169U U176G, for which the reverse-splicing fitness worked out at 0.00217.

As for C82U A120U A145U C150U C169U U176A, the reverse-splicing fitness was found to be 0.0028. In the case of C82U A120U A145U C150U C169U U176C it was 0.00368; in that of C82U A120U A145U C150G C169A U176G, 0.0021. Consider C82U A120U A145U C150G C169A U176C, for which the reverse-splicing fitness is 0.00203. Take C82U A120U A145U C150G C169A U176A: the reverse-splicing fitness was 0.00252.

Regarding C82U A120U A145C C150U C169A U176A, the reverse-splicing fitness is 0.00242.

On to C82U A120U A145C C150U C169A U176C, for which the reverse-splicing fitness was determined as 0.00189. In the case of C82U A120U A145C C150U C169A U176G, the reverse-splicing fitness stood at 0.00165. Take C82U A120U A145G C150A U176C: the reverse-splicing fitness is 0.0141.

Regarding C82U A120U A145G C150A U176G, the reverse-splicing fitness was 0.00354. With C82U A120U A145G C150A U176A, the reverse-splicing fitness came to 0.0113.

As for C82U A145C C169U, the reverse-splicing fitness was 0.0123.

For C82U A145C C169G, the reverse-splicing fitness turned out to be 0.00966. As to C82U A145C C169A, the reverse-splicing fitness worked out at 0.00714. In the case of C82U A120U A145C C150G U176G, the reverse-splicing fitness was 0.00242. For the variant C82U A120U A145C C150G U176A, the reverse-splicing fitness was 0.0055. For the variant C82U A120U A145C C150G U176C, the reverse-splicing fitness was 0.00864. For C82U A120G C169G, the reverse-splicing fitness was determined as 0.0242. Take C82U A120G C169U: the reverse-splicing fitness is 0.0177. On to C82U A145C C150A C169G U176A, for which the reverse-splicing fitness came out at 0.0178. Consider C82U A145C C150A C169G U176G, for which the reverse-splicing fitness came to 0.00485.

Take C82U A145C C150A C169G U176C: the reverse-splicing fitness turned out to be 0.00995. In the case of C82U A120U A145G C150U C169A it was 0.00495. Under C82U A120U A145G C150U C169G stands 0.00546; under C82U A120U A145G C150U C169U, 0.00625; under C82U A120U A145G C150U C169G U176A, 0.00433.

Consider C82U A120U A145G C150U C169G U176G, for which the reverse-splicing fitness is 0.0018.

In the case of C82U A120U A145G C150U C169G U176C, the reverse-splicing fitness turned out to be 0.00361. For the variant C82U A145G C150A, the reverse-splicing fitness is 0.103. On to C82U A120U A145C C169U U176A, for which the reverse-splicing fitness is 0.00253.

With C82U A120U A145C C169U U176G, the reverse-splicing fitness was determined as 0.00172. As to C82U A120U A145C C169U U176C, the reverse-splicing fitness worked out at 0.00289.

For C82U A120U A145G C150G C169A U176A, the reverse-splicing fitness was 0.0107.

Take C82U A120U A145G C150G C169A U176C: the reverse-splicing fitness was 0.00568. In the case of C82U A120U A145G C150G C169A U176G it was 0.00459; in that of C82U A120U A145U U176G, 0.013; in that of C82U A120U A145U U176C, 0.0847. With C82U A120U A145U U176A, the reverse-splicing fitness was found to be 0.0411.

As to C82U A145C C150A C169U U176A, the reverse-splicing fitness stood at 0.0103. C82U A145C C150A C169U U176C: the reverse-splicing fitness was 0.00693. For the variant C82U A145C C150A C169U U176G, the reverse-splicing fitness worked out at 0.00503.

Regarding C82U A120U A145G C150G U176C, the reverse-splicing fitness was 0.0113. As for C82U A120U A145G C150G U176G, the reverse-splicing fitness was 0.00382.

For C82U A120U A145G C150G U176A, the reverse-splicing fitness came to 0.00711. Consider C82U A120U A145G C150A C169G U176G, for which the reverse-splicing fitness is 0.00193. As to C82U A120U A145G C150A C169G U176C, the reverse-splicing fitness came out at 0.00372. C82U A120U A145G C150A C169G U176A: the reverse-splicing fitness was 0.00525. Regarding C82U A120U A145C C150U U176C, the reverse-splicing fitness came out at 0.0162. In the case of C82U A120U A145C C150U U176G it was 0.00482. As to C82U A120U A145C C150U U176A, the reverse-splicing fitness worked out at 0.0114. In the case of C82U A120U A145G, the reverse-splicing fitness is 0.167.

On to C82U A120U A145U, for which the reverse-splicing fitness is 0.181.

Consider C82U A120U A145C, for which the reverse-splicing fitness came to 0.153.

For the variant C82U A120U A145U C150G C169G, the reverse-splicing fitness was found to be 0.00248. Take C82U A120U A145U C150G C169A: the reverse-splicing fitness is 0.00259. Take C82U A120U A145U C150G C169U: the reverse-splicing fitness stood at 0.00244.

With C82U A120U C150U C169A, the reverse-splicing fitness was found to be 0.00404. Consider C82U A120U C150U C169G, for which the reverse-splicing fitness worked out at 0.00457.

The values are drawn from the RNAGym collection of RNA variant scans (doi:10.1093/molbev/msab373).
